Laboratory results published in patent publication US20260297181 (published 2026).
Where two headings read alike, the source gives them in different places.

Legend:
insulin [1] = target: T1, insulin (human, UniProt P01308); assay: BLI
insulin [2] = target: T1, insulin; assay: BLI; remark: listed apart in the source

T1 sequence (P01308 25-54, chain 1 of 2): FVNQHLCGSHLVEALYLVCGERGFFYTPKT
T1 sequence (P01308 90-110, chain 2 of 2): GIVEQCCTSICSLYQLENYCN

| Binder | Kd (insulin [1]) | Kd (insulin [2]) |
| --- | --- | --- |
| nolinkLOV C185A "dark" (antibody) MAQIQLVQSGPELKKPGETVKISCKASGYTFTDYSMHWVKQAPGKGLKWMDWINTETGVPTYADDFKGRFAFSLETSANTAYLQINDLKNEDTATYFCTRGYGKGYFDVWGAGTTVTVSSAKSTPPSVYPLAPGSGEFLATTLERIEKNFVITDPRLPDNPIIFASDSFLQLTEYSREEILGRNARFLQGPETDRATVRKIRDAIDNQTEVTVQLINYTKSGKKFWNLFHLQPMRDQKGDVQYFIGVQLDGTEHVRDAAEREAVMLIKKTAEEIDEAAKELQIVLTQSPTIMSASLGERVTMTCTASSSVSSSYLHWYQQKPGSSPKLWIYSTSNLASGVPARFSGSGSGTSYSLTISSMEAEDAATYYCHQYHRSPPTFGAGTKLELKRADAAKL | 198 nM | – |
| WT anti-insulin scFv (HB125) (antibody) MAQIQLVQSGPELKKPGETVKISCKASGYTFTDYSMHWVKQAPGKGLKWMDWINTETGVPTYADDFKGRFAFSLETSANTAYLQINDLKNEDTATYFCTRGYGKGYFDVWGAGTTVTVSSAKSTPPSVYPLAPGSGGGGSGGGGSGGGGSQIVLTQSPTIMSASLGERVTMTCTASSSVSSSYLHWYQQKPGSSPKLWIYSTSNLASGVPARFSGSGSGTSYSLTISSMEAEDAATYYCHQYHRSPPTFGAGTKLELKRADAA | 55.2 nM | 55.2 nM |
| nolinkLOV (antibody) MAQIQLVQSGPELKKPGETVKISCKASGYTFTDYSMHWVKQAPGKGLKWMDWINTETGVPTYADDFKGRFAFSLETSANTAYLQINDLKNEDTATYFCTRGYGKGYFDVWGAGTTVTVSSAKSTPPSVYPLAPGSGEFLATTLERIEKNFVITDPRLPDNPIIFASDSFLQLTEYSREEILGRNCRFLQGPETDRATVRKIRDAIDNQTEVTVQLINYTKSGKKFWNLFHLQPMRDQKGDVQYFIGVQLDGTEHVRDAAEREAVMLIKKTAEEIDEAAKELQIVLTQSPTIMSASLGERVTMTCTASSSVSSSYLHWYQQKPGSSPKLWIYSTSNLASGVPARFSGSGSGTSYSLTISSMEAEDAATYYCHQYHRSPPTFGAGTKLELKRADAAKL | 78.5 nM | – |
| gsLOV (antibody) MAQIQLVQSGPELKKPGETVKISCKASGYTFTDYSMHWVKQAPGKGLKWMDWINTETGVPTYADDFKGRFAFSLETSANTAYLQINDLKNEDTATYFCTRGYGKGYFDVWGAGTTVTVSSAKSTPPSVYPLAPGSGGGGSGEFLATTLERIEKNFVITDPRLPDNPIIFASDSFLQLTEYSREEILGRNCRFLQGPETDRATVRKIRDAIDNQTEVTVQLINYTKSGKKFWNLFHLQPMRDQKGDVQYFIGVQLDGTEHVRDAAEREAVMLIKKTAEEIDEAAKELGGGGSQIVLTQSPTIMSASLGERVTMTCTASSSVSSSYLHWYQQKPGSSPKLWIYSTSNLASGVPARFSGSGSGTSYSLTISSMEAEDAATYYCHQYHRSPPTFGAGTKLELKRADAAKL | – | 100 nM |
| nolinkLOV I267E, A271E "light" (antibody) MAQIQLVQSGPELKKPGETVKISCKASGYTFTDYSMHWVKQAPGKGLKWMDWINTETGVPTYADDFKGRFAFSLETSANTAYLQINDLKNEDTATYFCTRGYGKGYFDVWGAGTTVTVSSAKSTPPSVYPLAPGSGEFLATTLERIEKNFVITDPRLPDNPIIFASDSFLQLTEYSREEILGRNCRFLQGPETDRATVRKIRDAIDNQTEVTVQLINYTKSGKKFWNLFHLQPMRDQKGDVQYFIGVQLDGTEHVRDAAEREAVMLEKKTEEEIDEAAKELQIVLTQSPTIMSASLGERVTMTCTASSSVSSSYLHWYQQKPGSSPKLWIYSTSNLASGVPARFSGSGSGTSYSLTISSMEAEDAATYYCHQYHRSPPTFGAGTKLELKRADAAKL | 68.7 nM | – |
| gsLOV I272E, A276E "light" (antibody) MAQIQLVQSGPELKKPGETVKISCKASGYTFTDYSMHWVKQAPGKGLKWMDWINTETGVPTYADDFKGRFAFSLETSANTAYLQINDLKNEDTATYFCTRGYGKGYFDVWGAGTTVTVSSAKSTPPSVYPLAPGSGGGGSGEFLATTLERIEKNFVITDPRLPDNPIIFASDSFLQLTEYSREEILGRNCRFLQGPETDRATVRKIRDAIDNQTEVTVQLINYTKSGKKFWNLFHLQPMRDQKGDVQYFIGVQLDGTEHVRDAAEREAVMLEKKTEEEIDEAAKELGGGGSQIVLTQSPTIMSASLGERVTMTCTASSSVSSSYLHWYQQKPGSSPKLWIYSTSNLASGVPARFSGSGSGTSYSLTISSMEAEDAATYYCHQYHRSPPTFGAGTKLELKRADAAKL | – | 63.8 nM |
| gsLOV C190A "dark" (antibody) MAQIQLVQSGPELKKPGETVKISCKASGYTFTDYSMHWVKQAPGKGLKWMDWINTETGVPTYADDFKGRFAFSLETSANTAYLQINDLKNEDTATYFCTRGYGKGYFDVWGAGTTVTVSSAKSTPPSVYPLAPGSGGGGSGEFLATTLERIEKNFVITDPRLPDNPIIFASDSFLQLTEYSREEILGRNARFLQGPETDRATVRKIRDAIDNQTEVTVQLINYTKSGKKFWNLFHLQPMRDQKGDVQYFIGVQLDGTEHVRDAAEREAVMLIKKTAEEIDEAAKELGGGGSQIVLTQSPTIMSASLGERVTMTCTASSSVSSSYLHWYQQKPGSSPKLWIYSTSNLASGVPARFSGSGSGTSYSLTISSMEAEDAATYYCHQYHRSPPTFGAGTKLELKRADAAKL | – | 104 nM |
